Values joined by “and” are separate entries in the source; they are usually repeats but may differ in a detail not shown here. Identical values can stand only once. Each block holds one binder with its values, some of them ahead of it.
What was measured:
[1] = target: T1, human CD123 (IL-3Rα, interleukin-3 receptor alpha chain) (human, UniProt P26951 19-378); test: cell-based or functional assay
[2] = target: T1, human CD123 (IL-3Rα, interleukin-3 …); test: flow cytometry on HNT-34 cells; apparent Kd
[3] = target: T1, human CD123 (IL-3Rα, interleukin-3 …); test: flow cytometry on MOLM-13 cells; apparent Kd; MOLM-13 cells
[4] = target: T1, human CD123 (IL-3Rα, interleukin-3 …); test: flow cytometry on HNT-34 cells, against muCD123-6 of Example 5
[5] = target: T1, human CD123 (IL-3Rα, interleukin-3 …); test: flow cytometry on TF-1 cells; EC50 of the binding curve taken as apparent Kd
[6] = target: T1, human CD123 (IL-3Rα, interleukin-3 …); test: flow cytometry on HNT-34 cells; EC50 of the binding curve taken as apparent Kd
[7] = target: T2, extracellular domain of CD123/IL-3Rα (residues 1-306), histidine tagged (human, UniProt P26951 19-306); test: ELISA on plate-coated His-tagged protein, A450
T2 construct: Expressed in HEK 293T cells, purified on Ni Sepharose, coated on ELISA plates; also called wild type IL-3Rα; wild-type IL-3Rα construct
T2 sequence: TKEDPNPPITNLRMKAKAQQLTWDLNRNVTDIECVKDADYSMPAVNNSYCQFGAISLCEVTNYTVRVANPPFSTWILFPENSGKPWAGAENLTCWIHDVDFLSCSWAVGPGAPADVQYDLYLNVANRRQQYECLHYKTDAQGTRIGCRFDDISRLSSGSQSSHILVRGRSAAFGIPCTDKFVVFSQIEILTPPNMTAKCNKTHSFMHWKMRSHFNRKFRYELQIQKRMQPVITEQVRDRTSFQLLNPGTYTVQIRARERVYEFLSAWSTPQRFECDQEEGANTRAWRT
Experimental: (§1) The chimeric and humanized anti-IL3Rα antibodies were tested in enzyme-linked immunosorbent assay (ELISA) format for binding to the IL-3Rαproteins described above. Briefly, each His-tagged IL-3Rαprotein purified by Ni Sepharose excel chromatography was diluted to 1 ng/mL in 50 mM sodium bicarbonate buffer pH 9.6, and 100 μL was added to each well. After a 16 hr incubation at 4° C., the plates were washed with Tris-buffered saline with 0.1% Tween-20 (TBST), then blocked with 200 μL blocking buffer (TBS with 1% BSA). Next, 100 μL of primary antibody, serially diluted in blocking buffer, was added in duplicate to the ELISA wells and incubated at room temperature for 1 hr. The plates were then washed 3 times with TBST before adding 100 μL of anti-human IgG (H+L)-HRP (Jackson ImmunoResearch) to each well. Once again the plates were incubated for 1 hr at room temperature followed by three washes with TBST. Finally, 100 μL of TMB one component HRP microwell substrate (Surmodics) was added to each well and incubated for 5 min. The reaction was stopped by adding 100 μL stopping solution (Surmodics) and absorbances were read at 450 nm.
(§2) Binding of the CD123 antibodies to the chimeric IL-3Rαproteins was evaluated in comparison to the wild type IL-3Rα.

[8] = target: T3, IL3Rα (1-100) chimeric receptor protein: IL3Rα residues 1-100 fused to GMRα residues 115-325, His-tagged (human, UniProt P15509 115-325); test: ELISA on plate-coated His-tagged protein, A450
T3 construct: range 115-325; also called IL-3Rα N-terminal domain construct
T3 sequence: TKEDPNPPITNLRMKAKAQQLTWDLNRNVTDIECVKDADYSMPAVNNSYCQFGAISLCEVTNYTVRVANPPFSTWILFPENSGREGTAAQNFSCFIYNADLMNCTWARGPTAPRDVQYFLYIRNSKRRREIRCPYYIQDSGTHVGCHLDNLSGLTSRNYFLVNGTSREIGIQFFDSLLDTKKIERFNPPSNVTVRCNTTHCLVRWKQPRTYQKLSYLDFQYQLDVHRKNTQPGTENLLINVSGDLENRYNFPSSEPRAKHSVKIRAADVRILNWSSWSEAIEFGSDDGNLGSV
Experimental: as §1, §2

[9] = target: T1, human CD123 (IL-3Rα, interleukin-3 …); test: flow cytometry on HNT-34 cells, against muCD123-14 of Example 5

- IC50, inhibition of IL3-dependent proliferation of TF-1 cells [1]: 0.03 nM
- IC50, inhibition of IL-3 dependent proliferation of TF-1 cells [1]: 0.02 nM
- Kd [2]: 0.04 nM and ~0.06 nM
- Kd [3]: 0.08 nM
- fold difference of Kd from the murine counterpart [4]: ≤ 2.5 fold
B1: chCD123-6 (antibody, human IgG1, V domains shown)
VH: EFQLQQSGPELVKPGASVKMSCKASGYIFTSSIMHWMKQKPGQGLEWIGYIKPYNDGTKYNEKFKGKATLTSDKSSSTANMELNSLTSEDSAVYYCAREGGNDYYDTMDYWGQGTSVTVSS
VL: DIKMTQSPSSMYASLGERVTITCKASQDINSYLSWFQQKPGKSPKTLIYRVNRLVDGVPSRFSGSGSGQDYSLTISSLEYEDMGIYYCLQYDAFPYTFGGGTKLEIKR
notes: also called chimeric CD123-6 antibody

- IC50, inhibition of IL-3 dependent proliferation of TF-1 cells [1]: 0.33 nM and 0.2 nM
- Kd [2]: ~2 nM
- Kd [5]: 0.9 nM
- Kd [6]: 2 nM
B2: 7G3 (antibody, V domains shown)
VH: EVQLQQSGPELVKPGASVKMSCKASGYTFTDYYMKWVKQSHGKSLEWIGDIIPSNGATFYNQKFKGKATLTVDRSSSTAYMHLNSLTSEDSAVYYCTRSHLLRASWFAYWGQGTLVTVSA
VL: DFVMTQSPSSLTVTAGEKVTMSCKSSQSLLNSGNQKNYLTWYLQKPGQPPKLLIYWASTRESGVPDRFTGSGSGTDFTLTISSVQAEDLAVYYCQNDYSYPYTFGGGTKLEIKR

- IC50, inhibition of IL3-dependent proliferation of TF-1 cells [1]: 0.05 nM
- Kd [2]: 0.2 nM
- EC50 [7]: 0.0655 nM
- EC50 [8]: 0.0479 nM
- fold difference of Kd from the murine counterpart [9]: ≤ 2.5 fold
B3: chCD123-14 (antibody, V domains shown)
VH: EVKLVESGGDLVKPGGSLKLSCAASGFTFSNYAMSWVRQNSEKRLEWVATINSGGSFTYYPDSVKGRFTISRDNAKDSLYLQMSSLNSEDTAMYYCARQSEAYYGYDKRTWFAYWGQGTLVTVSS
VL: DILLTQSPAILSVSPGTRVSFSCRASQSVGTSIHWYQQRPNGFPRLLIKYASESISGIPSRFSGSGSGTDFTLNINSVESEDIADYYCQQSKSWPLTFGAGTKLELKR
notes: also called chimeric CD123-14 antibody

Source: US20180079819A1 (IMMUNOGEN, published 2018)
